Laboratory results: publication PMC6003988, “VRK1 and AURKB form a complex that cross inhibit their kinase activity and the phosphorylation of histone H3 in the progression of mitosis” (Cellular and Molecular Life Sciences: CMLS, 2018)
One block for each binder: values may come before it.

Biological target: T1, V5–AURKB, expressed in HEK293T cells (UniProt Q96GD4 1-344)
T1 construct: Aurora kinase B (AURKB), wild type; plasmid pDEST3.1_nV5-AurkB provided by Malumbres [65]; also called Aurora B; Aurora kinase B; source: HEK293T, transfected, in lysate
T1 sequence (Q96GD4 whole entry): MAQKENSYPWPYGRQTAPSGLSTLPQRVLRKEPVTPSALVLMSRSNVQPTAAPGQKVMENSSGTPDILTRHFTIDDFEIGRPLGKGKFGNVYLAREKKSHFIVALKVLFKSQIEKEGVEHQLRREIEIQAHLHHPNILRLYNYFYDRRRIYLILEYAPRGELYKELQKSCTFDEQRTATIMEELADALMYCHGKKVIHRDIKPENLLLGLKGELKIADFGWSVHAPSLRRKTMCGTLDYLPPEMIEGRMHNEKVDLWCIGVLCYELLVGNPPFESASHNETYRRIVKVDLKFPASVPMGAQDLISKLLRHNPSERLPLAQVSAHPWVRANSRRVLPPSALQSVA
Assay: co-IP; immunoprecipitation of V5-AURKB from extracts of HEK293T cells co-transfected with GST-VRK1 or HA-VRK1, WT or kinase-dead; VRK1 detected by immunoblot, quantified
Settings: partners not purified

fold binding against active VRK1: ~3 fold
B1: HA–VRK1–K179E, kinase-dead, expressed in HEK293T cells (enzyme, human, UniProt Q99986 1-396, looked up)
chain: MPRVKAAQAGRQSSAKRHLAEQFAVGEIITDMAKKEWKVGLPIGQGGFGCIYLADMNSSESVGSDAPCVVKVEPSDNGPLFTELKFYQRAAKPEQIQKWIRTRKLKYLGVPKYWGSGLHDKNGKSYRFMIMDRFGSDLQKIYEANAKRFSRKTVLQLSLRILDILEYIHEHEYVHGDIEASNLLLNYKNPDQVYLVDYGLAYRYCPEGVHKEYKEDPKRCHDGTIEFTSIDAHNGVAPSRRGDLEILGYCMIQWLTGHLPWEDNLKDPKYVRDSKIRYRENIASLMDKCFPEKNKPGEIAKYMETVKLLDYTEKPLYENLRDILLQGLKAIGSKDDGKLDLSVVENGGLKAKTITKKRKKEIEESKEPGVEDTEWSNTQTEEAIQTRSRTRKRVQK
notes: Vaccinia-related kinase 1 (VRK1), kinase-dead mutant K179E; plasmid pCEFL-HA-VRK1-K179E; also called HA–VRK1–KD; pCEFL–HA–VRK1–K179E; source: HEK293T, transfected, in lysate

fold binding against active VRK1: ~3 fold
B2: GST–VRK1 (K179E), kinase inactive, expressed in HEK293T cells (enzyme, human, UniProt Q99986 1-396, looked up)
chain: B1 chain
notes: Vaccinia-related kinase 1 (VRK1), kinase-dead mutant K179E; also called GST-VRK1 KD; kinase-dead VRK1 (K179E); source: HEK293T, transfected, in lysate
